Eight molecules from PMC2766422 can be followed below.

Where two headings read alike, the source gives them in different places.

In series [1] the target is T1, PTB1 (human, UniProt P26599-1 1-531). Briefly: EMSA. (In general: In EMSA bound probe runs differently from free probe, usually more slowly.)
The target in series [2] is T2, PTB1:34 (RRM3-RRM4) (human, UniProt P26599-1 334-531). Description: EMSA.
In series [3] the target is T3, PTB1:12 (RRM1-RRM2) (human, UniProt P26599-1 1-301). Briefly: EMSA.
Series [4] deals with T4, PTB1/W3 (human, UniProt P26599-1 1-531, F371W). Briefly: Trp fluorescence quenching.
In series [5] the target is T5, PTB1/W4 (human, UniProt P26599-1 1-531, F487W). Briefly: Trp fluorescence quenching.
The target in series [6] is T3, PTB1:12 (RRM1-RRM2). Briefly: EMSA. The source holds these as a separate data set.
Series [7] addresses T1, PTB1. Briefly: EMSA. The source holds these as a separate data set.
Series [8] deals with T1, PTB1. Briefly: filter binding.
For series [9], the target named is T1, PTB1. Briefly: EMSA. The source holds these as a separate data set.
The target of series [10] is T3, PTB1:12 (RRM1-RRM2). Briefly: EMSA. The source holds these as a separate data set.
Series [11] addresses T2, PTB1:34 (RRM3-RRM4). Briefly: EMSA. The source holds these as a separate data set.
Series [12] addresses T1, PTB1. Briefly: EMSA. This is another data set of the same source.
For series [13], the target named is T4, PTB1/W3. Briefly: EMSA.
In series [14] the target is T5, PTB1/W4. Description: EMSA.
A further series deals with PTB1/W1 (human, UniProt P26599-1 1-531, F98W). Description: EMSA.
Series [15] addresses T1, PTB1. Description: EMSA. The source holds these as a separate data set.
The target of series [16] is T2, PTB1:34 (RRM3-RRM4). Briefly: EMSA. The source holds these as a separate data set.
The target of series [17] is T1, PTB1. Description: EMSA. This is another data set of the same source.

A word on the Kd: it is a measure of binding affinity in units of concentration. Read a low Kd as a tighter complex.

Consider GGGCUUCUUCGGAUGUUUUCCUUCAAG (structured_RNA) [GABAA gamma2 exon 4 RNA], for which the binding result with PTB1 [1], in the series with PTB1:34 (RRM3-RRM4) [2] and with PTB1:12 (RRM1-RRM2) [3] was “no binding” each time.

Turning to GGAGACUUGGUGGCUCCAUCUUAGCCCUA (structured_RNA) [HCV X SL3], the binding result in the series with PTB1/W3 [4] and with PTB1/W4 [5] was “binds” each time. Further, the Kd in the series with PTB1:12 (RRM1-RRM2) [6] stood at 1600 ± 600 nM; with PTB1 [7], 285 ± 120 nM; with PTB1 [8], 410 ± 30 nM.

Take GGGAUCGGUGCCAUCGAUGUCAGGUGUGUACCCCUUAGGAGG (structured_RNA) [c-src exon N1 RNA]: the binding result with PTB1 [1], with PTB1:34 (RRM3-RRM4) [2] and with PTB1:12 (RRM1-RRM2) [3] was “no binding” in each case.

B1: c-src 5' SL + N1 (78-mer, RNA78) (structured_RNA)
RNA: GGCAACCCUCUCCUUCUCUCUGCUUCUCUCUCGCUGGCCCUUAGGAGGAAGGUGCCAUCGAUGUCAGGUGUGUACCGAGG
For B1, binding with PTB1 [9] was characterised by a dissociation constant (Kd) of 80 ± 2 nM.

For the molecule GGGACUACGCAAUUCUCUUUUCUGUCUACAAAUCCAAAG (ssRNA) [GABA RNA11], in the series with PTB1:12 (RRM1-RRM2) [10], the binding result is given as “no binding”. Besides, the Kd with PTB1:34 (RRM3-RRM4) [11] came out at 50 ± 3 nM; with PTB1 [12] it was 15 ± 2 nM. Further, the binding signal with PTB1/W3 [13], with PTB1/W4 [14] and with PTB1/W1 was ~2 fold lower affinity than PTB1 each time.

B2: c-src 3' end RNA (structured_RNA)
RNA: GGGAUCGCUUCGCUGAGGCUGGGGGCUGCUCUCUGCAUGUGCUUCCUCCACCGCCCCUGUGUGUUUCCAGCUCUCUCCCCGUCCCUUUAGCUUACCCUGCAUCCCACCUGUAUGAGCCGUACCC
Turning to B2, the binding result with PTB1 [15] and with PTB1:34 (RRM3-RRM4) [16] was “binds” throughout.

GGAUCCUUCUCUCUGCUUCUCUCUCGCUGGCCCUUAGGAGG (structured_RNA) [c-src 5' SL (39-mer)] returned a Kd with PTB1 [17] of 45 ± 2 nM.

Turning to GGGUCACGGCUAGCUGUGAAAGGUCCGUGAG (structured_RNA) [HCV X SL2], the binding result with PTB1 [1] is “no binding”.
